The target of experiment [1] is T1, recombinant Plasmodium falciparum Hsp70-z (PfHsp70-z) (Plasmodium falciparum).
T1 construct: also called PfHsp110c; PfHsp110; not shown: His6, N-terminal, kept
As to the kind of experiment: SPR; ProteOn XPR36, ligand amine-coupled to GLC chip, analyte 125-2000 nM at 50 μl/min, PBS-Tween with 20 mM EDTA pH 7.4, 25 °C, Langmuir fit; with 5 mM ATP. As to conditions: both partners purified.

Experiment [2] has as its target T1, recombinant Plasmodium falciparum …. As to the kind of experiment: SPR; ProteOn XPR36, ligand amine-coupled to GLC chip, analyte 125-2000 nM at 50 μl/min, PBS-Tween with 20 mM EDTA pH 7.4, 25 °C, Langmuir fit; with 5 mM ADP. As to conditions: both partners purified. A general note: In SPR one partner is held on a chip, and binding of the other changes the refractive index at the surface.

Kd, koff and kon data for one molecule are collected here from article PMC4837182, “Plasmodium falciparum Hsp70-z, an Hsp110 homologue, exhibits independent chaperone activity and interacts with Hsp70-1 in a nucleotide-dependent fashion” (Cell Stress & Chaperones, 2016).

B1: nucleotide binding domain of PfHsp70-1 (PfHsp70-1NBD) (domain or fragment)
chain: not shown
modifications: assayed without nucleotide or with ADP/ATP; N-terminal His6 tag from pQE30 left out. Locus PF3D7_0818900 (cytosolic PfHsp70-1, UniProt Q8IB24) is from memory, not given; NBD limits are
What is called Kd is the constant that tells how readily two partners part at equilibrium. Broadly, the koff is the rate constant with which the complex falls apart. By kon is commonly meant the second-order rate constant of association. Consider B1, for which, in experiment [1], the Kd stood at 2.12 nM, the koff stood at 9.43e-06 s⁻¹ and the kon came to 4460 M⁻¹ s⁻¹. Also, in experiment [2], the Kd was 98.6 nM, the koff came out at 0.00026 s⁻¹ and the kon worked out at 2630 M⁻¹ s⁻¹.
